The series addresses T1, CasEnd-28 (synthetic construct).
T1 chain: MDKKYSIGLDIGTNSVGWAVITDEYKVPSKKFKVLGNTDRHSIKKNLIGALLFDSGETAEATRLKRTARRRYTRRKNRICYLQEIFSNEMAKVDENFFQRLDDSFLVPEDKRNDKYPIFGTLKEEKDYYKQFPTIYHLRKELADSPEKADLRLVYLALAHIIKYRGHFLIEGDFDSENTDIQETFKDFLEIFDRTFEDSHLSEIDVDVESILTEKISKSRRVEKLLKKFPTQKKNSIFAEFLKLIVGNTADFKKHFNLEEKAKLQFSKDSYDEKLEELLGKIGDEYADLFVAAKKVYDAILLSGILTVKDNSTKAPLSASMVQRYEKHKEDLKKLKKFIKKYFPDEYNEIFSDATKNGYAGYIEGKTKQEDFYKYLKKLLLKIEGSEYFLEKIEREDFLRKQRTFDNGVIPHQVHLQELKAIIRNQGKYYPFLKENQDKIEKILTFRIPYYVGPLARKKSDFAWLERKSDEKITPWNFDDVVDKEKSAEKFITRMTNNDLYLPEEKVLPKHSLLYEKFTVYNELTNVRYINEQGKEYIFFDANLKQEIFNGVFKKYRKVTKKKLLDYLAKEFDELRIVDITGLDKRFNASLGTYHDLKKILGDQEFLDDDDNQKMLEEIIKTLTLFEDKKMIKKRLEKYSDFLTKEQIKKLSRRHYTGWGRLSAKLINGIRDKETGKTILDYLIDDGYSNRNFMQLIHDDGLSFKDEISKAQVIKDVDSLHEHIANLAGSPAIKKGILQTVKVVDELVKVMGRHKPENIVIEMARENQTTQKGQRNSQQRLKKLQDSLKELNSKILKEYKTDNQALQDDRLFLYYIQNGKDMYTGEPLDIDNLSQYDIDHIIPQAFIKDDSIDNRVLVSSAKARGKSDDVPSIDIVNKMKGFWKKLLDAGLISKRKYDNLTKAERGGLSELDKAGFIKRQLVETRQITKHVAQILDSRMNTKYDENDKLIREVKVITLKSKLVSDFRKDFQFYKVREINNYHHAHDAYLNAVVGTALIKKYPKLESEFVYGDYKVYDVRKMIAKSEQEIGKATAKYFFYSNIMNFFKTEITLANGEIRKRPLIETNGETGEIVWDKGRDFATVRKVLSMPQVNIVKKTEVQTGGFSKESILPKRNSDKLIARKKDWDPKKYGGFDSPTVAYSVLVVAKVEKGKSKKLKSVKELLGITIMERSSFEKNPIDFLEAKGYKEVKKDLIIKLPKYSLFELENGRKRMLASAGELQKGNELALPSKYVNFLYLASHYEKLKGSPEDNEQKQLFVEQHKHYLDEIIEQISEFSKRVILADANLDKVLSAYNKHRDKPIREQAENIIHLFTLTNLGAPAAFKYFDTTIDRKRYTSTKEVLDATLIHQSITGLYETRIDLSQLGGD
Description: cell_activity; +++; K562, second nick guide SEQ 380; PAM not stated. The method, then: The ability of the candidate endonucleases, including endonucleases 1-38 (CasEnds 1-38) (set forth in Table 1 and SEQ ID NOS: 1-38, respectively), to mediate target nucleic acid editing in cells was assessed by amplicon sequencing of the endogenous hemoglobin subunit beta (eHBB) gene, wherein the percent of amplicons displaying the intended edit is measured. The editing system is comprised of a template RNA (designed to introduce the Single Nucleotide Polymorphism), a second nick guide RNA, and a fusion protein consisting of retroviral reverse transcriptase and the individual subject Cas endonuclease.
Briefly, 250 ng of plasmid DNA encoding the subject fusion protein (containing one of the subject CasEnds), 250 ng each of plasmid DNA encoding the template RNA and the second nick guide RNA were added to 15 μL Lonza SF buffer containing 250,000 K562 cells. Nucleofection was mediated utilizing program FF-120-DA on a Lonza nucleofector. The day of nucleofection was marked as day 0. At day 3, the cells were harvested and subjected to lysis buffer treatment overnight. Genomic DNA was extracted and used for targeted amplicon sequencing to evaluate the performance of each Cas endonucleases based on their percent edit efficiencies.

B1: HBB template RNA ; HBB protospacer (ssRNA ; dsDNA)
RNA: CAUGGUGCACCUGACUCCUGGUUUUAGAGCUAGAAAUAGCAAGUUAAAAUAAGGCUAGUCCGUUAUCAACUUGAAAAAGUGGCACCGAGUCGGUGCACGGCAGACUUCUCUGCCGGAGUCAGGUGC
DNA 1: CATGGTGCACCTGACTCCTG
DNA 2: CAGGAGTCAGGTGCACCATG
Turning to B1, the activity was ≥ 100 % of reference.

These data come from US20250092426, “CAS ENDONUCLEASES AND RELATED METHODS” (Flagship Pioneering Innovations VII, LLC, published 2025).
